B1: Thioredoxin H1 (Arabidopsis thaliana (Mouse-ear cress)), P29448 (parent)
chain: MASEEGQVIACHTVETWNEQLQKANESKTLVVVDFTASWCGPCRFIAPFFADLAKKLPNVLFLKVDTDELKSVASDWAIQAMPTFMFLKEGKILDKVVGAKKDELQSTIAKHLA

Variants of: B1
Details: with cdpkl_arath CPK21, Q9ZSA2
Chain of cdpkl_arath CPK21, Q9ZSA2 (Q9ZSA2 whole entry): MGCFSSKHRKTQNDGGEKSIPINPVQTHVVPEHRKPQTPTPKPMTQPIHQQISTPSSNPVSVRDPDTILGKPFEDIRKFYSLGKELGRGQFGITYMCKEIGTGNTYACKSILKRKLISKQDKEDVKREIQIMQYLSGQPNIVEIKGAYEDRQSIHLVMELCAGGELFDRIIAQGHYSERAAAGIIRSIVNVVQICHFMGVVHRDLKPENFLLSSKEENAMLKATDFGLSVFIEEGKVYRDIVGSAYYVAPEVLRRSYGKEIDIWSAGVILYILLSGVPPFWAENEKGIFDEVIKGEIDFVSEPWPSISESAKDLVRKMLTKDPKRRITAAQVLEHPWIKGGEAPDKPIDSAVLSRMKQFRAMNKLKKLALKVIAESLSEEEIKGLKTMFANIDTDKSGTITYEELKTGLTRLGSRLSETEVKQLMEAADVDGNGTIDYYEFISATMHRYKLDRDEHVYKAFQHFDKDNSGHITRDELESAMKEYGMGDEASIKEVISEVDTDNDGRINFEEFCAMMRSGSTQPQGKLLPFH

effect of a mutation on the interaction	Variant
increasing interaction	C43S

— IntAct's records for PubMed 23615222
